According to US20130142788A1 (published 2013):
* marks the point of attachment. Biotin = O=C1N[C@H]2[C@H](CS[C@H]2CCCCC(=O)*)N1

How the values were obtained:
[1] = target: T1, recombinant mature dimeric myostatin (human and mouse (mature sequences 100% …, UniProt O08689 268-376)); assay: cell-based or functional assay
T1 sequence: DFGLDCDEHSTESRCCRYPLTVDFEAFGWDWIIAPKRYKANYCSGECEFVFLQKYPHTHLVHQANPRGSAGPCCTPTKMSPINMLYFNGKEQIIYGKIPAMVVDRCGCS

[2] = target: T2, myostatin artificial peptide No 41 (SGSGPINMLYFNGKEQII) (HELM PEPTIDE1{[O=C1N[C@H]2[C@H](CS[C@H]2CCCCC(=O)[*:2])N1].S.G.S.G.P.I.N.M.L.Y.F.N.G.K.E.Q.I.I.[am]}$$$$V2.0; SMILES …); assay: SRU BIND biosensor, peptides captured on streptavidin plate
T2 construct: also called Peptide 41
T2 peptide: SGSGPINMLYFNGKEQII
Description: (§1) Work was carried out on an SRU BIND reader (SRU Biosystems). A streptavidin biosensor plate was washed, a baseline reading taken, and biotinylated peptides captured onto the streptavidin coated biosensor plate. The plate was washed again, and a new baseline reading taken, antibody was then added and binding monitored.

[3] = target: T3, myostatin artificial peptide No 35 (SGSGSAGPCCTPTKMSPI) (cysteine pairing not given here); assay: as above
T3 construct: also called Peptide 35
T3 peptide: Biotin-SGSGSAGPCCTPTKMSPI-NH2
Description: as §1

[4] = target: T4, myostatin artificial peptide No 11 (SGSGTVDFEAFGWDWIIA) (HELM PEPTIDE1{[O=C1N[C@H]2[C@H](CS[C@H]2CCCCC(=O)[*:2])N1].S.G.S.G.T.V.D.F.E.A.F.G.W.D.W.I.I.A.[am]}$$$$V2.0; SMILES …); assay: as above
T4 construct: also called Peptide 11
T4 peptide: SGSGTVDFEAFGWDWIIA
Description: as §1

[5] = target: T5, myostatin artificial peptide No 7 (SGSGSRCCRYPLTVDFEA) (cysteine pairing not given here); assay: as above
T5 construct: also called Peptide 7
T5 peptide: Biotin-SGSGSRCCRYPLTVDFEA-NH2
Description: as §1

[6] = target: T6, myostatin artificial peptide No 43 (SGSGLYFNGKEQIIYGKI) (HELM PEPTIDE1{[O=C1N[C@H]2[C@H](CS[C@H]2CCCCC(=O)[*:2])N1].S.G.S.G.L.Y.F.N.G.K.E.Q.I.I.Y.G.K.I.[am]}$$$$V2.0; SMILES …); assay: as above
T6 construct: also called Peptide 43
T6 peptide: SGSGLYFNGKEQIIYGKI
Description: as §1

[7] = target: T7, myostatin artificial peptide No 39 (SGSGTKMSPINMLYFNGK) (HELM PEPTIDE1{[O=C1N[C@H]2[C@H](CS[C@H]2CCCCC(=O)[*:2])N1].S.G.S.G.T.K.M.S.P.I.N.M.L.Y.F.N.G.K.[am]}$$$$V2.0; SMILES …); assay: as above
T7 construct: also called Peptide 39
T7 peptide: SGSGTKMSPINMLYFNGK
Description: as §1

[8] = target: T8, myostatin artificial peptide No 3 (SGSGDCDEHSTESRCCRY) (cysteine pairing not given here); assay: as above
T8 construct: also called Peptide 3
T8 peptide: Biotin-SGSGDCDEHSTESRCCRY-NH2
Description: as §1

[9] = target: T9, myostatin artificial peptide No 31 (SGSGVHQANPRGSAGPCC) (cysteine pairing not given here); assay: as above
T9 construct: also called Peptide 31
T9 peptide: Biotin-SGSGVHQANPRGSAGPCC-NH2
Description: as §1

[10] = target: T10, myostatin artificial peptide No 13 (SGSGEAFGWDWIIAPKRY) (HELM PEPTIDE1{[O=C1N[C@H]2[C@H](CS[C@H]2CCCCC(=O)[*:2])N1].S.G.S.G.E.A.F.G.W.D.W.I.I.A.P.K.R.Y.[am]}$$$$V2.0; SMILES …); assay: as above
T10 construct: also called Peptide 13
T10 peptide: SGSGEAFGWDWIIAPKRY
Description: as §1

[11] = target: T11, myostatin artificial peptide No 17 (SGSGIAPKRYKANYCSGE) (HELM PEPTIDE1{[O=C1N[C@H]2[C@H](CS[C@H]2CCCCC(=O)[*:2])N1].S.G.S.G.I.A.P.K.R.Y.K.A.N.Y.C.S.G.E.[am]}$$$$V2.0; SMILES …); assay: as above
T11 construct: also called Peptide 17
T11 peptide: SGSGIAPKRYKANYCSGE
Description: as §1

[12] = target: T12, myostatin artificial peptide No 25 (SGSGFVFLQKYPHTHLVH) (HELM PEPTIDE1{[O=C1N[C@H]2[C@H](CS[C@H]2CCCCC(=O)[*:2])N1].S.G.S.G.F.V.F.L.Q.K.Y.P.H.T.H.L.V.H.[am]}$$$$V2.0; SMILES …); assay: as above
T12 construct: also called Peptide 25
T12 peptide: SGSGFVFLQKYPHTHLVH
Description: as §1

[13] = target: T13, myostatin artificial peptide No 21 (SGSGNYCSGECEFVFLQK) (cysteine pairing not given here); assay: as above
T13 construct: also called Peptide 21
T13 peptide: Biotin-SGSGNYCSGECEFVFLQK-NH2
Description: as §1

[14] = target: T14, myostatin artificial peptide No 9 (SGSGRYPLTVDFEAFGWD) (HELM PEPTIDE1{[O=C1N[C@H]2[C@H](CS[C@H]2CCCCC(=O)[*:2])N1].S.G.S.G.R.Y.P.L.T.V.D.F.E.A.F.G.W.D.[am]}$$$$V2.0; SMILES …); assay: as above
T14 construct: also called Peptide 9
T14 peptide: SGSGRYPLTVDFEAFGWD
Description: as §1

[15] = target: T1, recombinant mature dimeric myostatin; assay: ELISA, myostatin coated at 10 ng/well
Description: 10B3 and 10B3 chimera (10B3C) bound myostatin (R&D Systems, 788-G8-010/CF) in a sandwich ELISA. Plates were coated with myostatin at 10 ng/well and blocked with Block solution (PBS, 0.1% TWEEN and 1% BSA). Following washing (PBS, 0.1% TWEEN), antibody was incubated at 37° C. for 2 hours over a dilution series and plates washed again prior to incubation at 37° C. for 1 hour with anti-mouse HRP or anti-human HRP (Dako, P0161 & Sigma, A-8400, respectively). Plates were again washed and OPD substrate (Sigma, P9187) added until colourometric reaction occurred and the reaction stopped by the addition of H₂SO₄.

IC50, myostatin responsive reporter gene neutralisation assay (A204) [1]: 10 nM
binding result [2]: no binding
binding result [3]: no binding
binding result [4]: no binding
binding result [5]: no binding
binding result [6]: no binding
binding result [7]: no binding
binding result [8]: no binding
binding result [9]: no binding
binding result [10]: no binding
binding result [11]: no binding
binding result [12]: no binding
binding result [13]: no binding
binding result [14]: no binding
EC50 [15]: 0.069 µg/mL
B1: mouse monoclonal antibody 10B3 (antibody, mouse IgG2a, V domains shown)
VH: EVQLQQSGPELVKPGASVKISCKASGYSFTGYFMHWVKQSHGNILDWIGNIYPYNGVSNYNQRFKAKATLTVDKSSSTAYMELRSLTSEDSAVYYCARRYYYGTGPADWYFDVWGTGTTVTVSS
VL: DIKMTQSPSSMYASLRERVTITCKASQDINSYLSWFQQKPGKSPKTLIYRANRLVDGVPSRFSGSGSGQDYSLTISSLEYEDMGIYYCLQCDEFPLTFGAGTKLELK
notes: Murine IgG2a/k; also called 10B3 mouse parental; parental 10B3
